In patent US20240317840A1 (Novartis, published 2024):
Where a chain is given by its changes, count along the chain named.

B1: NOV3831 (antibody, human IgG1, lambda, V domains shown)
VH: EMQVLESGGGLVQPGGSLRLSCAASGFTFNNYAMSWVRQVPGKGLEWVSSISGSGGSTYYADSVKGQFTISRDNSKNTLYLQMNSLRAEDTAVYYCAKSSILSGGHARVYGIDVWGQGTTVTVSS
VL: QSALTQPPSVSVAPGQTARITCGGNNIGSQSVHWYQQKPGQAPILVVYDDTDRPSGIPARFSGSSSGSTATLTIGRVEAGDEADYYCQVWDSSSDHVVFGGGTKLTVLS
notes: Full human IgG1 (lambda) expressed in CHO cells
B2: NOV3833 (antibody, human IgG1, lambda, V domains shown)
VH: B1 VH with N30H
VL: B1 VL
notes: as for B1
B3: NOV3836 (antibody, human IgG1, kappa, V domains shown)
VH: QVQLVESGGGVVQPGRSLRLSCAASGFTFERYGMHWVRQAPGKGLEWVAGIWHEGSHKYYADSLRGRFTISRDNAKNTLDLQLNRLRAEDTSVYYCVRQTNRGRLDDAFDIWGQGTMVTVSS
VL: DIQMTQSPSSLSAAVGDRVTISCRASQTISSYLNWYQQKPGEAPKLLIYAASTLQSGVPSRFGGSGSGTDFTLTISSLQPEDSATYYCQQNYDTLWTFGQGTKVEIKR
B4: NOV3834 (antibody, human IgG1, kappa, V domains shown)
VH: B3 VH with E30N, E54D
VL: B3 VL
notes: Full human IgG1 (kappa) expressed in CHO cells
B5: NOV3835 (antibody, human IgG1, kappa, V domains shown)
VH: B3 VH with E30D
VL: B3 VL

target: HBsAg of HBV genotype D, serotype ayw (Hepatitis B virus); test: cell-based or functional assay

Binder	Virus neutralization EC50 [pM]
B1	26
B2	270
B3	17
B4	240
B5	720

target: T1, HBsAg AD serotype (Hepatitis B virus); test: SPR Biacore T200, HBsAg particles immobilized, antibody as analyte, 1:1 fit;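 note: Anti-HBsAg antibodies assessed for binding against both major HBsAg serotypes, AY and AD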
T1 construct: also called HBsAg serotype AD
Procedure: (§1) Binding affinity interaction (KD) of the anti-HBsAg antibodies with the two major serotypes of HBsAg, AY and AD, was determined utilizing surface plasma resonance (SPR) technology.

Binder	Kd [pM]
B1	670
B2	330
B4	40000

target: T2, HBsAg AY serotype (Hepatitis B virus); test: as above
T2 construct: also called HBsAg serotype AY
Procedure: as §1

Binder	Kd [pM]
B1	590
B2	260
B4	5300

target: HBsAg clinical mutation M133L (Hepatitis B virus); test: sandwich ELISA, captured mutant HBsAg from culture supernatant;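 note: Anti-HBsAg antibodies tested for binding to mutant HBsAg secreted by stably transfected cell lines, supernatant incubated 1 h on antibody-coated plates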
Procedure: (§2) The binding of anti-HBsAg antibodies to 4 well characterized vaccine and/or HBsAg clinical mutations of HBsAg (G145R, D144A, T126S, M133L) were analyzed by sandwich ELISA. […] Supernatant collected from HBsAg cell-culture derived clinical mutation stables (G145R, D144A, T126S, M133L) was allowed to bind antibody coated plates for 1 hour.

Binder	IC50 [pM]
B1	5.8
B2	36
B4	9200

target: HBsAg clinical mutation T126S (Hepatitis B virus); test: as above
Procedure: as §2

Binder	IC50 [pM]
B1	9.3
B2	25
B4	7400

target: HBsAg clinical mutation D144A (Hepatitis B virus); test: as above
Procedure: as §2

Binder	IC50 [pM]
B1	3600
B2	2800

target: HBsAg clinical mutation G145R (Hepatitis B virus); test: as above
Procedure: as §2

Binder	IC50 [pM]
B1	> 67000
B2	> 67000

target: HBsAg of HBV genotype C (DQ087960) (Hepatitis B virus); test: sandwich ELISA, captured HBsAg from culture supernatant
Procedure: (§3) The binding of anti-HBsAg antibodies to the 4 major genotypes (A-D) of HBV were analyzed by sandwich ELISA.

Binder	IC50 [pM]
B1	31
B2	120
B4	16000

target: HBsAg of HBV genotype B (AF 121245) (Hepatitis B virus); test: as above
Procedure: as §3

Binder	IC50 [pM]
B1	15
B2	120
B4	1200

target: T3, HBsAg of HBV genotype A (AY934772) (Hepatitis B virus); test: as above
T3 construct: captured from supernatant by horse polyclonal anti-HBsAg
Procedure: as §3

Binder	IC50 [pM]
B1	690
B2	560
B4	2000

target: HBsAg clinical mutation M133L (Hepatitis B virus); test: sandwich ELISA, mutant HBsAg from cell supernatant captured on horse polyclonal anti-HBsAg, antibody titrated, absorbance 450 nm

Binder	EC50 (read off the curve) [pM]
B1	~20

target: HBsAg clinical mutation T126S (Hepatitis B virus); test: as above

Binder	EC50 (read off the curve) [pM]
B1	~20

target: HBsAg clinical mutation M133L (Hepatitis B virus); test: as above; remark: another data set of the same source

Binder	EC50 (read off the curve) [pM]
B2	~50

target: HBsAg clinical mutation T126S (Hepatitis B virus); test: as above; remark: another data set of the same source

Binder	EC50 (read off the curve) [pM]
B2	~40
